Results on 2 proteins are retold here after PMC8604678, “The MttB superfamily member MtyB from the human gut symbiont Eubacterium limosum is a cobalamin-dependent γ-butyrobetaine methyltransferase” (The Journal of Biological Chemistry, 2021).

Substrate in data set [1]: C[N+](C)(C)CCCC(=O)[O-]
In words: UV-visible spectrophotometric MtqC methylation assay. Format: biochemical, Eubacterium limosum. The note with it: ATP, Ti(III)citrate, pH 7.2, 37 °C, anoxic.

Substrate in data set [2]: C[N+](C)(C)C[C@H](O)CC(=O)O
Described as above. The format is biochemical, Eubacterium limosum. The note with it: methyl acceptor Co(I)-MtqC 15 μM, RamQ 5 μM, ATP, Ti(III)citrate, pH 7.2, 37 °C, anoxic.

[3] abbreviates: methyl acceptor Co(I)-MtqC 30 μM, RamQ 5 μM.
Where [4] appears, read: methyl acceptor Co(I)-MtqC 56 μM, RamQ 4.5 μM.

B1: MtyB (Eubacterium limosum) (protein)
chain: MLKGNLFTTFYSKDDIELIHESVLRVFNEVGVKFEYEEALELFKKHGARVEGDLVFIPEELLNKALSTIPESFEIVGPESKLEIGIGKGLVVAPTNGCPNLEDWDGNYRQTNADDLENFYKIINTSDVYGISSQVAADIPGFENCPTESALAQMAMMAKYSRKPMYNILGITPHNYKRGNAREGARECVQLIKKYMDNFDDYVCYSGMCVLPPLTVGTDALEHYFAFAEEKQPITITTCSMTNMTAPPSLMGSIVADFANMLAVAVMIQLIEPGLPVILSPFSSVSDMREVRLMTGAPEFLMIMSGHIAMGDFYRIPVRCSGALADGFTYDYQAGVESTLGALAVSLSNACILPHASGDLSNFNLLSFPKFMMDEEMLRYMKRLHDGVAISEKKANVELIKKVGPRGVYLKGRTPKDYREETYLTSPVFNRGTCNEEGRAATPPIQERAYKVYKERIESFELPDMTQAQKDLLNEHLPEKFKIK
notes: C-terminal hexahistidine tag, codon-optimized gene in pETDuet-1 co-expressed with mtqC in E. coli Tuner(DE3), separated from MtqC by anion exchange
Take B1: in data set [1] (setting [3]), the Km was 3.5 ± 0.7 mM and the kcat worked out at 3 ± 0.167 s⁻¹. Besides, in data set [2], the Km was found to be 4.0 ± 0.7 mM and the kcat worked out at 6.78 ± 0.442 s⁻¹.

B2: MtcB (Eubacterium limosum) (protein)
chain: MIRNSLTDVFFAKDDVENLHEGVLRVLSKVGVKIENDEALGIFEQHGARVENGTVYIGEVLLNKALQTVPANFELQGFDRTVQVGLDHDPVVIPTNGTPMVLNFDGSYSDTNTDDLVNFYKLIDTSDVMQVTSEIAVDVPGLDKTKDSLLAQTALLMKYSHKPIYNILGATIHNYKKGSVAQGVRENIQFAKKYYGYDDKYVIYSGTCVISPLGVGWEAMDHFMGFIKENQPISITACSMTNLTAPGSLYGSVVEDAAAILSIVVLSQLMNPGLPVLYTSLSSMSDMRYVQLCMGAPEFALITLGHIALANFYKIPVRVGGALGDAFKADYQAGVESFVGLMAPMLSQSAMIPHGCGTMGSFNLTSYEKFIMDEETIRYLMRLRRGFEVSDKRKEKALKDITKVGPRGNFLGGRTPKEYREDNYLASEVFNRKGCKENTREEQGDIRDRARKVYDARMEAYELPDTTLEQKKLLNTELPEQYKFDI
notes: expression plasmid of earlier work
For the protein B2, in data set [1] (setting [4]), the Km was 15 ± 6 mM and the kcat was 0.138 ± 0.0183 s⁻¹.

By Km is commonly meant the concentration of substrate that gives half-maximal velocity. What is called kcat is the maximal rate divided by the concentration of active sites.
